Data as given in the Immune Epitope Database (IEDB).

Tests used:
Test in all cases: IEDB peptide-MHC binding, purified MHC/competitive/radioactivity; filed as Kd, often an IC50 or EC50 that approximates it; ≥ and ≤ were set here for values at or beyond the usual limits of such assays
[1] = biological target: HLA-A*03:01
[2] = biological target: HLA-A*11:01
[3] = biological target: HLA-A*31:01
[4] = biological target: HLA-A*33:01
[5] = biological target: HLA-A*68:01
[6] = source organism: Vaccinia virus WR
[7] = source organism: Dengue virus 2 Jamaica/1409/1983
[8] = source organism: Vaccinia virus Copenhagen
[9] = source organism: SARS coronavirus Tor2
[10] = source organism: Dengue virus 3 Martinique/1243/1999
[11] = source organism: Mammarenavirus brazilense
[12] = source organism: Dengue virus 4 Philippines/H241/1956
[13] = source organism: Mammarenavirus guanaritoense
[14] = source organism: Triticum aestivum
[15] = source organism: Dengue virus 1 Singapore/S275/1990
[16] = source organism: Dengue virus 1 Brazil/97-11/1997
[17] = source organism: Mammarenavirus whitewaterense
[18] = source organism: Lymphocytic choriomeningitis virus (strain Armstrong)

Sequence	Kd [1, 6]	Kd [2, 6]	Kd [3, 6]	Kd [4, 6]	Kd [5, 6]	further results
TLNEYKQLY	56.7 nM	124 nM	1350 nM	7000 nM	1360 nM	
AMAFHLTTR						Kd [1, 7]: 56.3 nM; Kd [3, 7]: 1.57 nM
SSSLDQTHIK						Kd [1, 8]: 90 nM; Kd [2, 8]: 4.92 nM; Kd [3, 8]: 868 nM; Kd [4, 8]: ≥ 26000 nM; Kd [5, 8]: 850 nM
GVRFFFYTSK						Kd [1, 9]: 88.9 nM; Kd [2, 9]: 44.6 nM; Kd [3, 9]: 488 nM; Kd [4, 9]: 11000 nM; Kd [5, 9]: 121 nM
ETAKVIKLVK	1610 nM	192 nM	9310 nM	≥ 70000 nM	21.4 nM	
DLLNSMMNR	2210 nM	14800 nM	42.3 nM	4.04 nM	35.9 nM	
MVDVSMMSMY	2330 nM	2040 nM	≥ 23900 nM	≥ 30600 nM	148 nM	
TSADLTVEK						Kd [2, 10]: 185 nM; Kd [5, 10]: 15.5 nM
DLIAMENLK	≥ 33500 nM	1350 nM	19500 nM	586 nM	16.2 nM	
KCFEKFLEPK						Kd [1, 11]: 1270 nM; Kd [2, 11]: 16900 nM; Kd [3, 11]: 1030 nM; Kd [4, 11]: ≥ 23100 nM; Kd [5, 11]: 3470 nM
FTLNHVLALK	10.6 nM	7.96 nM	135 nM	1710 nM	4.61 nM	
FLLFLEITY	10500 nM	15900 nM	160 nM	7170 nM	1900 nM	
GLSLQDYCY	3100 nM	361 nM	≥ 37800 nM	8680 nM	≥ 29500 nM	
TAMAFHLTTR						Kd [3, 7]: 9.04 nM; Kd [4, 7]: 18.4 nM; Kd [5, 7]: 8.55 nM
LLLFADINGK						Kd [1, 9]: 136 nM; Kd [2, 9]: 508 nM; Kd [3, 9]: ≥ 24100 nM; Kd [4, 9]: 17200 nM; Kd [5, 9]: 9200 nM
ISNITTATR						Kd [3, 12]: 72.7 nM
NLKSLLLENK	88.8 nM	63.4 nM	1060 nM	2160 nM	137 nM	
VLGLGLSLK	6.73 nM	25.7 nM	1570 nM	≥ 26800 nM	9650 nM	
TCITSMAER						Kd [1, 13]: ≥ 67000 nM; Kd [2, 13]: 17400 nM; Kd [3, 13]: 559 nM; Kd [4, 13]: 2630 nM; Kd [5, 13]: 243 nM
VVLQQHNIVH						Kd [1, 14]: 2020 nM; Kd [2, 14]: 4630 nM; Kd [3, 14]: 5200 nM; Kd [4, 14]: ≥ 28300 nM; Kd [5, 14]: ≥ 29600 nM
YLALYNKYK						Kd [1, 9]: 201 nM; Kd [2, 9]: 1320 nM; Kd [3, 9]: 941 nM; Kd [4, 9]: 7980 nM; Kd [5, 9]: 913 nM
VMCGGSLYVK						Kd [1, 9]: 58.4 nM; Kd [2, 9]: 46.6 nM; Kd [3, 9]: 648 nM; Kd [4, 9]: 16300 nM; Kd [5, 9]: 8480 nM

Sequence	Kd [1, 6]	Kd [2, 6]	Kd [3, 6]	Kd [4, 6]	Kd [5, 6]	further results
RIMQRGLLGR						Kd [1, 15]: 5.56 nM; Kd [3, 15]: 1.16 nM
STGNYNYKYR						Kd [1, 9]: 2760 nM; Kd [2, 9]: 1380 nM; Kd [3, 9]: 34.7 nM; Kd [4, 9]: 1090 nM; Kd [5, 9]: 244 nM
YIWIKNLETY	1460 nM	3440 nM	1740 nM	4480 nM	161 nM	
ILSDENYLLK	57.5 nM	29 nM	17000 nM	14400 nM	2530 nM	
LTLFVEECLR						Kd [4, 12]: 60.7 nM; Kd [5, 12]: 56.2 nM
RNKKPRICTR						Kd [3, 16]: ≥ 70000 nM
TTRLENVMWK						Kd ([2]; source organism: Dengue virus 4 Dominica/814669/1981): 590 nM
QTVNICIFY	828 nM	39.9 nM	839 nM	10500 nM	1.96 nM	
HIKVDHPDK	5150 nM	5680 nM	158 nM	298 nM	1960 nM	
QFNQMMNPSH						Kd [1, 11]: ≥ 70000 nM; Kd [2, 11]: ≥ 69700 nM; Kd [3, 11]: ≥ 20200 nM; Kd [4, 11]: ≥ 70000 nM; Kd [5, 11]: ≥ 70100 nM
VFYRSGTETK	≥ 33800 nM	≥ 34100 nM	8280 nM	6530 nM	≥ 20400 nM	
LQMAGVEVR	13900 nM	5760 nM	218 nM	6150 nM	2380 nM	
NMLNIMNRR						Kd [3, 15]: 5350 nM; Kd [4, 15]: 13.3 nM
STDVNKQNK	8970 nM	11.9 nM	1180 nM	≥ 77700 nM	290 nM	
LIVSLCPTK	8400 nM	107 nM	14200 nM	1440 nM	75.4 nM	
MSHLKVALYR	609 nM	100 nM	2.25 nM	66.5 nM	31.2 nM	
SRLFEDLVWK						Kd [1, 17]: 661 nM; Kd [2, 17]: 1270 nM; Kd [3, 17]: 8590 nM; Kd [4, 17]: ≥ 70000 nM; Kd [5, 17]: 605 nM
VTSLAIKNY	≥ 25100 nM	322 nM	≥ 34800 nM	≥ 77700 nM	12500 nM	
LMHPDFCKNR	13600 nM	≥ 24500 nM	16.9 nM	254 nM	8450 nM	
FMDEIDHESY	15800 nM	≥ 36400 nM	≥ 22000 nM	≥ 43700 nM	≥ 59200 nM	
YTLFQQTGR	3100 nM	551 nM	50 nM	24.1 nM	0.384 nM	
VVRDFENYVK	24.9 nM	30.7 nM	269 nM	8050 nM	71.3 nM	

Sequence	Kd [1, 6]	Kd [2, 6]	Kd [3, 6]	Kd [4, 6]	Kd [5, 6]	further results
QLLMPLKAPK						Kd [1, 9]: 100 nM; Kd [2, 9]: 146 nM; Kd [3, 9]: 134 nM; Kd [4, 9]: 2290 nM; Kd [5, 9]: 1530 nM
MLDTSEKYSK	17300 nM	107 nM	≥ 22300 nM	≥ 70000 nM	4320 nM	
IVNEHDIKY	1.13 nM	85.1 nM	≥ 39900 nM	≥ 55800 nM	4460 nM	
YIIRRSGCR	10500 nM	566 nM	29.3 nM	192 nM	64.1 nM	
NMKPNFWSR	≥ 78000 nM	≥ 34700 nM	0.349 nM	1.06 nM	208 nM	
IVQLPKRGVR	15800 nM	≥ 25700 nM	1230 nM	12500 nM	19000 nM	
NAILHNIYR	≥ 36100 nM	1360 nM	5.17 nM	1.82 nM	0.565 nM	
KIIHEWCCR						Kd [3, 16]: ≥ 59300 nM
NIISRTRLY	375 nM	1020 nM	3910 nM	10200 nM	879 nM	
SLIKTILASY	97.5 nM	1050 nM	4570 nM	≥ 43300 nM	1730 nM	
DSMDVLAEKK	343 nM	762 nM	1000 nM	3540 nM	1.68 nM	
GLTSRATWAK						Kd [1, 7]: 52.3 nM
FLIGANYLGK						Kd [1, 9]: 213 nM; Kd [2, 9]: 543 nM; Kd [3, 9]: 3720 nM; Kd [4, 9]: ≥ 34000 nM; Kd [5, 9]: 51.3 nM
SFIISTLNK	57.4 nM	5.35 nM	5.1 nM	8110 nM	9.98 nM	
RTELGVEFLK						Kd [1, 9]: 962 nM; Kd [2, 9]: 52.4 nM; Kd [3, 9]: 1350 nM; Kd [4, 9]: 15900 nM; Kd [5, 9]: 9720 nM
SSKIRWIVER						Kd [3, 12]: 17.1 nM; Kd [4, 12]: 389 nM
GTLGLECSPR						Kd [4, 10]: 23.6 nM; Kd [5, 10]: 106 nM
TAVAPSMTMR						Kd [5, 7]: 18.8 nM
TMKAIEKDR	≥ 25900 nM	2620 nM	227 nM	675 nM	511 nM	
KSLVSAGSGK						Kd [1, 10]: 3.41 nM
MSTYGWNLVR						Kd [5, 7]: 24.9 nM
TTAFFNTCK	46.2 nM	0.492 nM	226 nM	997 nM	0.947 nM	

Sequence	Kd [1, 6]	Kd [2, 6]	Kd [3, 6]	Kd [4, 6]	Kd [5, 6]	further results
EGVYRIMQR						Kd [5, 12]: 215 nM
QTMLFTMLR						Kd [1, 9]: 43.5 nM; Kd [2, 9]: 1.81 nM; Kd [3, 9]: 0.162 nM; Kd [4, 9]: 1.24 nM; Kd [5, 9]: 2.61 nM
STLLTWHMH						Kd [1, 18]: ≥ 38200 nM; Kd [2, 18]: 258 nM; Kd [3, 18]: 4490 nM; Kd [4, 18]: ≥ 77700 nM; Kd [5, 18]: 2720 nM
KAKWLTPFEK	212 nM	249 nM	115 nM	≥ 70000 nM	11800 nM	
YSYATHHDK						Kd [1, 9]: 16.4 nM; Kd [2, 9]: 30.5 nM; Kd [3, 9]: 3470 nM; Kd [4, 9]: ≥ 26200 nM; Kd [5, 9]: 16.3 nM
ATAHSELAK						Kd [1, 9]: 11.6 nM; Kd [2, 9]: 5.33 nM; Kd [3, 9]: 18500 nM; Kd [4, 9]: ≥ 77700 nM; Kd [5, 9]: 19.2 nM
QMRTPLHKY	141 nM	1760 nM	7830 nM	≥ 77700 nM	≥ 77700 nM	
YFISIYSRPK	220 nM	853 nM	112 nM	107 nM	25.2 nM	
TTRLENIMWK						Kd [2, 12]: 271 nM
VSIMIEEVMR						Kd [5, 16]: 202 nM
TSIFAGHLK						Kd [2, 10]: 39.1 nM; Kd [5, 10]: 4.3 nM
LMTLMKGASK						Kd [1, 12]: 273 nM
MKNKAWMVHR						Kd [3, 10]: 140 nM
IVSSVNMISR						Kd [4, 7]: 88.5 nM; Kd [5, 7]: 16.2 nM
SYTQVCDHR						Kd ([4]; source organism: Dengue virus 1 Nauru/West Pac/1974): 43.2 nM
TAASAAQRR						Kd [5, 10]: 24.9 nM
SSMLNIMNR						Kd [2, 16]: 10.4 nM; Kd [3, 16]: 11800 nM; Kd [5, 16]: 7.35 nM
ETNMITLLVK						Kd [2, 12]: 1080 nM
VTCAMFTCKK						Kd [1, 7]: 86.7 nM; Kd [2, 7]: 97.7 nM
